# Source: patent US20180051081A1 (published 2018)
# B1: Clone 17 (pVxK7b-037-hum17-LC / pVxK7b-037-hum17-HC) (antibody, human IgG1, kappa)
# light: AIQLTQSPSSLSASVGDRVTITCRSSQSLVHSNGNTYLHWYQQKPGQAPRLLIYKVSYRFSGVPDRFSGSGSGTDFTLKISRVEAEDVGVYYCSQNTHVPRTFGQGTKVEIKRTVAAPSVFIFPPSDEQLKSGTASVVCLLNNFYPREAKVQWKVDNALQSGNSQESVTEQDSKDSTYSLSSTLTLSKADYEKHKVYACEVTHQGLSSPVTKSFNRGEC
# heavy: not shown
# B2: Clone 18 (pVxK7b-037-hum18-LC / pVxK7b-037-hum18-HC) (antibody, human IgG1, kappa, V domains shown)
# VH: EVQLVQSGAEVKKPGESLRISCKGSGYTFTNYYVFWIRQSPSRGLEWLGDINPVNGDTNFNEKFKNRVTITADKSTSTAYMELSSLRSEDTAVYYCARGGYTMDYWGQGTLVTVSS
# VL: EIVLTQSPATLSVSPGERATLSCRSSQSLVHSNGNTYLHWYQQKPGQAPRLLIYKVSYRFSGVPSRFSGSGSGTDFTFTISSLEAEDAATYYCSQNTHVPRTFGQGTKVEIKR
# Experiments:
# human CD47 = target: T1, human CD47 (human, UniProt Q08722 19-323); assay: FACS, human RBCs, supernatant 10 ng/ml
# T1 construct: whole, on cells; also called CD47 on human RBCs; CD47 on OV10 cells
# T1 sequence (Q08722 19-323): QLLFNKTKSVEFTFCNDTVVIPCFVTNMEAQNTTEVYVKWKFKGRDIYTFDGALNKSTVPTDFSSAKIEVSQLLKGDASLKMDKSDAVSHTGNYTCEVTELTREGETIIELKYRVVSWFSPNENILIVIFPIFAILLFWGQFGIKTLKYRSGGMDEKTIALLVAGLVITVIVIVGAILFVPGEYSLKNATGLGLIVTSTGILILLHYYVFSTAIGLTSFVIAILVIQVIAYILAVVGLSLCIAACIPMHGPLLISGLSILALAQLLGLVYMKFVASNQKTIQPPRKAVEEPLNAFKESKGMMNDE
# Protocol: (§1) RBCs are incubated for 60 minutes on ice with tissue culture supernatants containing the secreted humanized antibodies at a concentration of 10 ng/ml in a solution of phosphate buffered saline, pH 7.2, 2.5 mM EDTA (PBS+E), or with various concentrations of purified antibodies. Cells are then washed with cold PBS+E, and incubated for an additional hour on ice with FITC labeled donkey anti-human antibody (Jackson Immuno Research Labs, West Grove, Pa.; Catalogue #709-096-149) in PBS+E. Cells are then washed with PBS+E, and antibody binding is analyzed using a BD FACSAria Cell Sorter (Becton Dickinson) or a C6 Accuri Flow Cytometer (Becton Dickinson). Antibody binding is quantitated by comparison of mean fluorescence values relative to that of chimeric antibody >VxP037-01LC (SEQ ID NO:7))/>VxP037-01HC (SEQ ID NO:57). The mean fluorescence value for each antibody is divided by the mean fluorescence value for the chimeric antibody.
# mouse CD47 = target: T2, mouse CD47 (mouse, UniProt Q61735 19-303); assay: FACS, mouse RBCs, supernatant 10 ng/ml
# T2 construct: whole, on cells; also called CD47 on mouse RBCs; CD47 on 4T1 cells
# T2 sequence (looked up): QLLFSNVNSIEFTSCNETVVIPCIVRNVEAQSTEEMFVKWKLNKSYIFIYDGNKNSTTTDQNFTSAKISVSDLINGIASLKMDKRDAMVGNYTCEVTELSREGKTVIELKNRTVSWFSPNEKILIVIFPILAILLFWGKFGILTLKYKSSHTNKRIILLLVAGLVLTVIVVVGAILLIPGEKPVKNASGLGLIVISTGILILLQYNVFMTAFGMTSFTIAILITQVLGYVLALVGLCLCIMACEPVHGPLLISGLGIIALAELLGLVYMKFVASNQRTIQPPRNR
# Protocol: as §1
# rat CD47 = target: T3, rat CD47 (rat, UniProt P97829 19-303); assay: FACS, rat RBCs, supernatant 10 ng/ml
# T3 construct: whole, on cells; also called CD47 on rat RBCs
# T3 sequence (looked up): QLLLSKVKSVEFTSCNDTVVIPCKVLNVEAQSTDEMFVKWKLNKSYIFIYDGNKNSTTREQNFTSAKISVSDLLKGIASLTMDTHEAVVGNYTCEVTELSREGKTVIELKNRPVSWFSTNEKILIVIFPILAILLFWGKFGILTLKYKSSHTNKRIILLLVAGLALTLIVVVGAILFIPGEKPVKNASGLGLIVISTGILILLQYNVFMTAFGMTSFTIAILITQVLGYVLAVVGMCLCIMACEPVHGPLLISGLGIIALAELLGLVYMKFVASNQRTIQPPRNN
# Protocol: as §1
# pig CD47 = target: T4, pig CD47 (pig, UniProt Q9GKE8 19-303); assay: FACS, pig RBCs, supernatant 10 ng/ml
# T4 construct: whole, on cells; also called CD47 on porcine RBCs
# T4 sequence (looked up): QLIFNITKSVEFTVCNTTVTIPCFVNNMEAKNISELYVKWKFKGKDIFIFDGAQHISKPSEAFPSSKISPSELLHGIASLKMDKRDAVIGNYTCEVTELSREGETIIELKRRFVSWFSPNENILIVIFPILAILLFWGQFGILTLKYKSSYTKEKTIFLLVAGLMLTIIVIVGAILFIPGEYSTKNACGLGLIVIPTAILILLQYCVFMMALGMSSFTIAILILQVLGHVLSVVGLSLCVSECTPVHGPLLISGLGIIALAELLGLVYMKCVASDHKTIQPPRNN
# Protocol: as §1
# dog CD47 = target: T5, dog CD47 (dog, UniProt A0A8I3PM61 19-310); assay: FACS, dog RBCs, supernatant 10 ng/ml
# T5 construct: also called CD47 on dog RBCs
# T5 sequence: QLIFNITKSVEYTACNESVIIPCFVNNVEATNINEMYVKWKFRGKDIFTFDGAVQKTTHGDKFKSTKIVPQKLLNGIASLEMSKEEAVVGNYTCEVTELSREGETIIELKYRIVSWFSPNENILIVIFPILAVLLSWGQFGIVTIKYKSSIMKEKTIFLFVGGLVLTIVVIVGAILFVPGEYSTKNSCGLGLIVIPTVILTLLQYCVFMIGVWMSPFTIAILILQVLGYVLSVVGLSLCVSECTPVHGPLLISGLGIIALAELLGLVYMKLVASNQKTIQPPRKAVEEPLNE
# Protocol: as §1
binder,measurement,setting,value
B1,mean fluorescence relative to chimera,human CD47,0.8
same,mean fluorescence relative to chimera,mouse CD47,0.9
same,mean fluorescence relative to chimera,rat CD47,2.1
same,mean fluorescence relative to chimera,pig CD47,1.3
same,mean fluorescence relative to chimera,dog CD47,1.3
B2,mean fluorescence relative to chimera,human CD47,1
same,mean fluorescence relative to chimera,mouse CD47,1.3
same,mean fluorescence relative to chimera,rat CD47,2.2
same,mean fluorescence relative to chimera,pig CD47,1.2
same,mean fluorescence relative to chimera,dog CD47,1.5
